Reference: patent US20090227489A1, “STAT3 Agonists and Antagonists and Therapeutic Uses Thereof” (Johns Hopkins University, priority 2000, published 2009)

Columns and labels:
[1] = system: B16 cells; assay: Cell growth inhibition assay, live cells by trypan blue exclusion; type: cell-based, murine; conditions: 48 h later, vs pIRES-EGFP
Protocol: Cell growth inhibition assay. Cells were plated at 1.7×10^5 cells/well in 6-well plates, followed by transfection with either pIRES-EGFP or pIRES-Stat3β plasmids 24 h later. Cells were harvested at 24 h, 48 h or 72 h to determine the numbers of live cells. Cell viability was determined by trypan blue exclusion.
(§1) This G0/G1 phase arrest was observed as early as 24 hourspost transfection. At 48 hours post transfection with Stat3β vector, Annexin V-PE staining followed by FACS analysis to detect apoptotic activity was performed with transfected B16 cells. A high level of apoptosis in Stat3β transfected cells (75%) relative to empty vector transfected cells (25%) was observed, as shown in FIG. 2C. Increased levels of apoptosis as a result of Stat3β transfection was confirmed by confocal laser scanning microscope analysis using rhodamine-labelled TUNEL assay.

[2] = system: B16 cells; assay: Cell cycle analysis by propidium iodide staining and FACS; type: cell-based, murine; conditions: transfected B16 cells, from 24 hours post transfection
Protocol: Cell cycle analysis. Cell cycle analysis based on DNA content was performed. Cells were harvested, washed twice in PBS and resuspended in 70% ethanol on ice for at least 30 min. After centrifugation, cells were resuspended in 1 ml of propidium iodide staining solution (50 μg propidium iodide, 1 mg RNase A and 1 mg glucose per ml PBS) and incubated at room temperature for 30 min. The cells were analyzed by FACS using ModFit LT cell cycle analysis software (Verity Software, Topsham, Me.). Cells transfected with vectors encoding EGFP were fixed in 1 ml of 0.5% formaldehyde on ice for 10 min. before adding 70% ethanol.
as §1

[3] = system: B16 cells; assay: RNase protection assays of cytokine and chemokine RNA in B16 cells; type: cell-based, murine; conditions: 36 h after transfection
Protocol: FIG. 7A-B. Stat3β expression in B16 cells upregulates the expression of pro-inflammatory chemokines and cytokines, which can stimulate peritoneal macrophages to produce NO. Elevated expression of pro-inflammatory cytokines and chemokines in B16 cells as a result of Stat3β expression (A. TNF-α, IL-6, IFN-β; B. IP-10). Total RNAs were prepared form mock-transfected, GFP-transfected, Stat3β-transfected and UV-irradiated B16 cells. Data shown have been confirmed with at least one more experiment, in which RNAs were prepared from independent transfectants and UV-irradiated B16 tumor cells.
RNase protection assays. 10 μg of total RNA isolated from either pIRES-EGFP- or pIRES-Stat3 β-transfected B16 cells (36 h after transfection) was hybridized to multi-template probes from PharMingen (mCK-5, Top Panel; mCK-3, Lower Panel) that were labeled with ^32P-dUTP using in vitro transcription. The RNA encoded by GAPDH housekeeping gene was used to normalize the amounts of RNAs loaded in each lane. Similar protocols were used to determine RNA expression profiles of macrophages treated with supernatants derived from B16 cells transfected with either Stat3β or GFP vector. […]
RNA expression profiles of a number of cytokines and chemokines in pIRES-Stat3β transfected B16 cells were determined. […]

[4] = system: VEGF; assay: VEGF expression and Stat3 activity in v-Src-transformed NIH3T3 fibroblasts; type: cell-based
Excerpt: FIG. 10A-B. Transfection of NIH3T3-Src cells with either: A. Stat3β expression vector; or B. Stat3 anti-sense oligos, results in reduced levels of VEGF protein as shown by Western blot. Src tyrosine kinase-mediated VEGF upregulation requires Stat3. Src tyrosine activity is known to upregulate VEGF expression. In Src-transformed NIH3T3 cells, VEGF expression is high.
Src tyrosine kinase activity upregulates VEGF expression. […] NIH3T3 fibroblasts transformed by v-Src were transiently transfected with a dominant-negative variant of Stat3, Stat3β. The transfection efficiency was approximately 40% based on the number of cells that were fluorescent due to the presence of GFP. […] Forty-eight hours later, VEGF expression in v-Src-NIH3T3 fibroblasts with or without Stat3β expression was compared at both RNA and protein levels. […] Anti-sense oligonucleotides against Stat3 as well as control oligonucleotides were also transfected into v-Src-NIH3T3 cells.

[5] = system: VEGF promoter; assay: VEGF promoter luciferase reporter in B16 and SCK tumor cells; type: cell-based; conditions: B16 and SCK murine tumor cells, co-transfection
Excerpt: FIG. 12A-B. Blocking Stat3 signaling in tumor cells inhibits VEGF promoter activity. Both B16 (A) and SCK (B) murine tumor cells were transfected with constructs containing the luciferase cDNA in the absence (pluc) or presence of the VEGF promoter (VEGF).
(§2) A plasmid construct containing the luciferase cDNA in the absence of the VEGF promoter was also transfected into 3T3 fibroblasts. Both of B16 and SCK tumor cells harbor constitutively activated Stat3. In the absence of Stat3β, VEGF promoter activity was readily detectable in both tumor cells as indicated by the high expression levels of luciferase protein. […] The inhibitory effect of Stat3β on the transcriptional activity of the VEGF promoter was also observed in the tumor cells transfected with Stat3 anti-sense oligonucleotides (FIG. 12A-B). It was also shown that blocking Stat3 signaling in tumor cells inhibits the expression of the endogeneous VEGF gene. B16 tumor cells were transiently transfected with Stat3β and the expression of endogeneous VEGF gene was determined at the RNA and protein levels.

[6] = system: VEGF; assay: Expression of the endogeneous VEGF gene in B16 tumor cells (Western blot); type: cell-based, murine; conditions: ASO at 100 nM, 200 nM, or 300 nM
Protocol: FIG. 13. Inhibition of Stat3 signaling in tumor cells reduces the expression of the endogeneous VEGF gene. B16 tumor cells were transfected with either: A. Stat3β; or B. Stat3 anti-sense oligonucleotides (ASO) at 100 nM, 200 nM, or 300 nM.
as §2

[7] = system: U266 cells; conditions: cited from earlier work

B1: Stat3β: dominant-negative Stat3 variant, truncated form lacking the transactivation domain; delivered by the pIRES-Stat3β expression vector (protein)
chain: AQWNQLQQLDTRYLEQLHQLYSDSFPMELRQFLAPWIESQDWAYAASKESHATLVFHNLLGEIDQQYSRFLQESNVLYQHNLRRIKQFLQSRYLEKPMEIARIVARCLWEESRLLQTAATAAQQGGQANHPTAAVVTEKQQMLEQHLQDVRKRVQDLEQKMKVVENLQDDFDFNYKTLKSQGDMQDLNGNNQSVTRQKMQQLEQMLTALDQMRRSIVSELAGLLSAMEYVQKTLTDEELADWKRRQQIACIGGPPNICLDRLENWITSLAESQLQTRQQIKKLEELQQKVSYKGDPIVQHRPMLEERIVELFRNLMKSAFVVERQPCMPMHPDRPLVIKTGVQFTTKVRLLVKFPELNYQLKIKVCIDKDSGDVAALRGSRKFNILGTNTKVMNMEESNNGSLSAEFKHLTLREQRCGNGGRANCDASLIVTEELHLITFETEVYHQGLKIDLETHSLPVVVISNICQMPNAWASILWYNMLTNNPKNVNFFTKPPIGTWDQVAEVLSWQFSSTTKRGLSIEQLTTLAEKLLGPGVNYSGCQITWAKFCKENMAGKGFSFWVWLDNIIDLVKKYILALWNEGYIMGFISKERERAILSTKPPGTFLLRFSESSKEGGVTFTWVEKDISGKTQIQSVEPYTKQQLNNMSFAEIIMGYKIMDATNILVSPLVYLYPDIPKEEAFGKYCRPESQEHPEADPGAAPYLKTKFICVTFIDAVWK
In the case of B1, the “number of live B16 cells” value [1] is reported as “decreases dramatically”, the cell cycle distribution [2] is reported as “progressive accumulation in G0/G1 phase” and the “expression levels of IL-4 and IL-10 mRNAs” value [3] is reported as “but not IL-4 and IL-10, were elevated”. For the same molecule, the “expression levels of IFN-β, TNF-α, IL-6 and IP-10 mRNAs” value ([3]; vs mock, control vector and UV-irradiated B16 cells) was “elevated”, the “Stat3 DNA binding activity (EMSA)” value ([4]; v-Src NIH3T3) was “loss of Stat3 DNA binding activity” and the VEGF expression ([4]; v-Src NIH3T3, forty-eight hours) was “inhibits VEGF”. The “transcriptional activity of the VEGF promoter (luciferase)” value [5] was “greatly inhibited”, the “expression of the endogeneous VEGF gene” value [6] was “downregulates expression of the endogeneous VEGF gene” and the “expression of the Bcl-XL gene” value [7] was “down-regulated expression of the Stat3-regulated Bcl-XL gene”. For the same molecule, the “sensitization to Fas-mediated apoptosis” value ([7]; in vitro) was “dramatic sensitization of cells to Fas-mediated apoptosis”.
